Reference: publication PMC8990068

The substances below were run against Fc gamma receptor I (human) (UniProt P12314) (assay: AlphaScreen or HTRF; AlphaLISA human FCGR binding kit (PerkinElmer), competition: donor and acceptor beads coated with unmodified IgG and FcγR-I; serial dilutions of SPGR-engineered IgG in 1X HiBlock buffer (1 mg/ml to 0.1 μg/ml); 25 °C, 90 min; signal at 615 nm).
Sequence of UniProt P12314 (P12314 16-292): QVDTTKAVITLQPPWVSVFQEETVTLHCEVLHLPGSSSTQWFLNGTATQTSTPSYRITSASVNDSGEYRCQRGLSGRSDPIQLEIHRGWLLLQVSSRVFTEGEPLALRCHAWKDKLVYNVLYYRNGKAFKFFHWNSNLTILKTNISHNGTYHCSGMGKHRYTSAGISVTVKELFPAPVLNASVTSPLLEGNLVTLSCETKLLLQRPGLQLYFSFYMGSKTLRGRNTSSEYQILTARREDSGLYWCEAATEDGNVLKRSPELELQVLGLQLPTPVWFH

Signal reduction at 0.1 μg/ml, 60%:
SPGR-engineered human serum IgG, sample 4, bi-antennary sialylated glycans (antibody)
SPGR-engineered human serum IgG, sample 9, bisecting glycans (after GnT-III and GalT) (antibody)
SPGR-engineered human serum IgG, sample 6, mono-antennary glycans (after GnT-I and GalT) (antibody)
SPGR-engineered human serum IgG, sample 5, mono-antennary glycans terminating with GlcNAc (antibody)
SPGR-engineered human serum IgG, sample 3, bi-antennary glycans with terminal galactose (antibody)
SPGR-engineered human serum IgG, sample 10, bisecting sialylated glycans (FA2BG2S2 route) (antibody)
SPGR-engineered human serum IgG, sample 2, bi-antennary (F)A2 glycans (terminating with GlcNAc) (antibody)
SPGR-engineered human serum IgG, sample 1, (F)M3 glycans (terminating with mannose) (antibody)
SPGR-engineered human serum IgG, sample 7, mono-antennary glycans (after GnT-I, GalT and SialylT) (antibody)
SPGR-engineered human serum IgG, sample 8, bisecting glycans terminating with GlcNAc (antibody)
